Earlier results, collected in patent US20030144198A1, “Coadministration of transport protein with conjugated cobalamin to deliver agents” (priority 2001, published 2003).
One block for each molecule: values may come before it.

What was measured:
[1] = the D isomer was not hydrolyzed
cubilin = cubilin (Homo sapiens, UniProt O60494); conditions: at 20° C., single binding site, dependent on calcium
[2] = in plasma

Chain of cubilin (O60494 36-3623, species assumed): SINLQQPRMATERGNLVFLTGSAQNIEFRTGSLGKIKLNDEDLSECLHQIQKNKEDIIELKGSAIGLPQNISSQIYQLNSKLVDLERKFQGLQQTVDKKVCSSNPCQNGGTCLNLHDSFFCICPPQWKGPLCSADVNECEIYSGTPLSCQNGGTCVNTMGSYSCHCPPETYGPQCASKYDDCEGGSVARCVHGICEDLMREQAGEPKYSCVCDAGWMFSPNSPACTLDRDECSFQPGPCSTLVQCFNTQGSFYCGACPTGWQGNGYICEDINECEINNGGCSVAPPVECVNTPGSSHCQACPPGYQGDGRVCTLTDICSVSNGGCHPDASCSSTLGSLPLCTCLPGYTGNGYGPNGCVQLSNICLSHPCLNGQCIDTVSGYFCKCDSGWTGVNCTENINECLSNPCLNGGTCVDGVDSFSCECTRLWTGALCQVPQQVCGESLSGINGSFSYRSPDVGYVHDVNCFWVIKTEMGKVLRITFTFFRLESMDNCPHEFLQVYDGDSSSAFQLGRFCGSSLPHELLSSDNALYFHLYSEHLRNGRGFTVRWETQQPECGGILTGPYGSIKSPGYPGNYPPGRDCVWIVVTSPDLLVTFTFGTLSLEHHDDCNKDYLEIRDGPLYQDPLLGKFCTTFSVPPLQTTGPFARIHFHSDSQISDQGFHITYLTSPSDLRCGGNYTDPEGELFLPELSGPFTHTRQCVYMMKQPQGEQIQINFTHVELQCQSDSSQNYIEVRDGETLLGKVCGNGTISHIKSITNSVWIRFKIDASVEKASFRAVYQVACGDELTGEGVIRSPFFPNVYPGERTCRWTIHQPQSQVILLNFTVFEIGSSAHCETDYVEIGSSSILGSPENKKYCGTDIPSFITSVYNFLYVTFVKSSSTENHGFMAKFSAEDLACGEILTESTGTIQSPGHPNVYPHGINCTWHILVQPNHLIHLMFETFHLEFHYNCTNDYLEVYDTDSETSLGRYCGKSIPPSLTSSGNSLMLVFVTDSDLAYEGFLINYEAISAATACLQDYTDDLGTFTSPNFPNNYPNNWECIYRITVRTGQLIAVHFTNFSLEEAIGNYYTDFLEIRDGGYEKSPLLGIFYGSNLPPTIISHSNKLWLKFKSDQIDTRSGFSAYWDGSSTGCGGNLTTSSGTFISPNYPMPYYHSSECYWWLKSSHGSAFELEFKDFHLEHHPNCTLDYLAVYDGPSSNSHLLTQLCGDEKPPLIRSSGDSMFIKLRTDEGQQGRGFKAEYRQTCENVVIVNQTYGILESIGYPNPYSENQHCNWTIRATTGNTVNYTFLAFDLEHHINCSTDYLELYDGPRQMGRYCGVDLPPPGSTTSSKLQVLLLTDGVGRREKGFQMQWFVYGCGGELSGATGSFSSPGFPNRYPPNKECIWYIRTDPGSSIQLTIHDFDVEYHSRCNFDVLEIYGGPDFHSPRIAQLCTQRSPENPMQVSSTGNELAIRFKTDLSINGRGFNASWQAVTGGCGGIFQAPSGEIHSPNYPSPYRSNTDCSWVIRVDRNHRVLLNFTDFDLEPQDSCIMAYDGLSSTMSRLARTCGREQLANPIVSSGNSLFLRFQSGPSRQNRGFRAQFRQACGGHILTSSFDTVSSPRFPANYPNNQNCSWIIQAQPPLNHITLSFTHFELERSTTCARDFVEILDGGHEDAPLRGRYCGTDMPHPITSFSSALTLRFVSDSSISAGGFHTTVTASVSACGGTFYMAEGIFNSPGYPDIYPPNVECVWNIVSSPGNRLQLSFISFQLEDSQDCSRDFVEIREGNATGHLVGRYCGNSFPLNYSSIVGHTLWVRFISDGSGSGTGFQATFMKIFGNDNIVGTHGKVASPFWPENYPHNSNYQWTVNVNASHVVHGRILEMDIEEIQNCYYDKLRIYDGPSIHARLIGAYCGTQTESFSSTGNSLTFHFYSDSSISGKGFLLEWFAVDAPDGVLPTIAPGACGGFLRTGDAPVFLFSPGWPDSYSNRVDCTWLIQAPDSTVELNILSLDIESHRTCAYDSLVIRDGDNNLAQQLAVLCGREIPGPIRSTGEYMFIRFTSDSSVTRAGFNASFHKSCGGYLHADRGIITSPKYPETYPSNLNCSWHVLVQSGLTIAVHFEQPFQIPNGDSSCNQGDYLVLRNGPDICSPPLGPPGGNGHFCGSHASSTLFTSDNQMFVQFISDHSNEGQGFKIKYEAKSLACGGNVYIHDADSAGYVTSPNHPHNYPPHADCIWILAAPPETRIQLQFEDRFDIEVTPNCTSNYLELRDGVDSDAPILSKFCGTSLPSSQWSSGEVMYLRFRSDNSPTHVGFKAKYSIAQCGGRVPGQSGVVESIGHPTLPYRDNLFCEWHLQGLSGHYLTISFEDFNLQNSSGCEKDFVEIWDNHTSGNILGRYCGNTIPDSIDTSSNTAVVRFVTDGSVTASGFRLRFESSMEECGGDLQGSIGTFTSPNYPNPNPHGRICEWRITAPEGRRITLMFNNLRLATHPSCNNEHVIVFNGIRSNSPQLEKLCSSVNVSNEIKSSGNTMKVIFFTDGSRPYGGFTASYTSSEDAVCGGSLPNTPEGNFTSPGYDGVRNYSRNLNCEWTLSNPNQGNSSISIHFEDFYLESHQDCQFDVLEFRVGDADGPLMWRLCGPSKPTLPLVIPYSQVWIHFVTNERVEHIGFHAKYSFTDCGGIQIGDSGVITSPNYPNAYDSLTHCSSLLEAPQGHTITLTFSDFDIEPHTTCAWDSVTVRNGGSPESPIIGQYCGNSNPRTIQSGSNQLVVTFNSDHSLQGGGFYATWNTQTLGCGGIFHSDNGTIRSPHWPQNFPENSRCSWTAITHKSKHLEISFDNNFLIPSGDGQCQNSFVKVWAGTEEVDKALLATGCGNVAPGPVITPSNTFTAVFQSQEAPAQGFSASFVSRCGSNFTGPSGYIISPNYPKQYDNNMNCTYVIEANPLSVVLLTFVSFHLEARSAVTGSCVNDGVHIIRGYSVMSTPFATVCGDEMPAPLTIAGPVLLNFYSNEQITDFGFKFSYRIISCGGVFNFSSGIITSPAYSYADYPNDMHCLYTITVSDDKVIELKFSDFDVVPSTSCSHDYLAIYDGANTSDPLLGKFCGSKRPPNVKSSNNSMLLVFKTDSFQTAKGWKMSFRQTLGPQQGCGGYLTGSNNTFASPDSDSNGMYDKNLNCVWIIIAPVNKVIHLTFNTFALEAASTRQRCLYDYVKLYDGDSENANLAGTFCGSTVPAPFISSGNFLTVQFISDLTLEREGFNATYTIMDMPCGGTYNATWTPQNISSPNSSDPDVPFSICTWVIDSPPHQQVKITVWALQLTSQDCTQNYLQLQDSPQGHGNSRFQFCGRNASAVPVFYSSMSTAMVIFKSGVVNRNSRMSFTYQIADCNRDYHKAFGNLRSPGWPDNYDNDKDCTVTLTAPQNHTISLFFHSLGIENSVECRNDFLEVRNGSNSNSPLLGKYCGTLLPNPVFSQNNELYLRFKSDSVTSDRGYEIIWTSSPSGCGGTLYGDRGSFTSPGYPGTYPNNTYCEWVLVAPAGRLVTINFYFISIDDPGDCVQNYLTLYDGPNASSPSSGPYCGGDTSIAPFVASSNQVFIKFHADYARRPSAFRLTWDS
Chain of cubilin (P27352 19-417 partner, species assumed): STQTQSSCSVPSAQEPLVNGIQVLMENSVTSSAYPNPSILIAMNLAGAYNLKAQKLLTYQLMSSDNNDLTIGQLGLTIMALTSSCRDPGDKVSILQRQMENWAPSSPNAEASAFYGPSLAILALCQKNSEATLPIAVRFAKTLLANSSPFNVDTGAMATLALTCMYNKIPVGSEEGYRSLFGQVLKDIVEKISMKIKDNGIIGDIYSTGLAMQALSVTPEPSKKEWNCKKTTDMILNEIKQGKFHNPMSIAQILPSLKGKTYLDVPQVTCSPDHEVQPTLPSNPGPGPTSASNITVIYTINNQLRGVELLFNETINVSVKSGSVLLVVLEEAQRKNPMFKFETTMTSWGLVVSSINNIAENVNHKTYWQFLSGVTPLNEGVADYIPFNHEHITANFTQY

Molecule: COc1cccc2c1C(=O)c1c(O)c3c(c(O)c1C2=O)C[C@@](O)(C(C)=O)C[C@@H]3O[C@H]1C[C@H](NC(=O)[C@@H](N)CC(C)C)C(O)[C@H](C)O1 (stereo partly drawn) [N-(L-leucyl) daunorubicin]
hydrolysis in vivo [1]: hydrolyzed in vivo to regenerate daunorubicin

Kd (cubilin): 1 to 5 nM
Molecule: IF-B12: complex of intrinsic factor with vitamin B12

B1: HC: haptocorrin, group of cobalamin binding proteins that includes TC-I and TC-III (protein, UniProt P20061 24-433, looked up)
Transcobalamin-1: EICEVSEENYIRLKPLLNTMIQSNYNRGTSAVNVVLSLKLVGIQIQTLMQKMIQQIKYNVKSRLSDVSSGELALIILALGVCRNAEENLIYDYHLIDKLENKFQAEIENMEAHNGTPLTNYYQLSLDVLALCLFNGNYSTAEVVNHFTPENKNYYFGSQFSVDTGAMAVLALTCVKKSLINGQIKADEGSLKNISIYTKSLVEKILSEKKENGLIGNTFSTGEAMQALFVSSDYYNENDWNCQQTLNTVLTEISQGAFSNPNAAAQVLPALMGKTFLDINKDSSCVSASGNFNISADEPITVTPPDSQSYISVNYSVRINETYFTNVTVLNGSVFLSVMEKAQKMNDTIFGFTMEERSWGPYITCIQGLCANNNDRTYWELLSGGEPLSQGAGSYVVRNGENLEVRWSKY
t1/2 [2]: 10 days

B2: TC-I: transcobalamin I, plasma cobalamin storage protein (protein, UniProt P20061 24-433, looked up)
Transcobalamin-1: B1 Transcobalamin-1
t1/2 [2]: 10 days
